One block for each sequence: values may come before it.
Columns and labels:
HLA-B*08:02 = assay: IEDB peptide-MHC binding, purified MHC/direct/fluorescence; filed as Kd, often an IC50 or EC50 that approximates it; ≥ and ≤ were set here for values at or beyond the usual limits of such assays
HLA-C*05:01 = assay: as above; details: source organism: Homo sapiens
HLA-B*07:02 = assay: as above
HLA-C*12:03 = assay: as above
HLA-A*02:01 [1] = assay: as above
HLA-A*11:01 [2] = assay: as above
HLA-A*69:01 = assay: as above
HLA-B*15:01 [3] = assay: as above
HLA-B*48:01 = assay: as above; details: source organism: Burkholderia mallei
HLA-B*46:01 = assay: as above; details: source organism: Burkholderia mallei
HLA-B*35:01 = assay: as above
HLA-A*02:01 [4] = assay: IEDB peptide-MHC binding, purified MHC/competitive/fluorescence; ≥ and ≤ were set here for values at or beyond the usual limits of such assays
HLA-A*01:01 [5] = assay: as above
HLA-A*03:01 [6] = assay: as above
HLA-A*11:01 [7] = assay: as above
HLA-A*24:02 = assay: as above
HLA-B*15:01 [8] = assay: as above
HLA-A*26:01 = assay: IEDB peptide-MHC binding, purified MHC/direct/fluorescence; filed as Kd, often an IC50 or EC50 that approximates it; ≥ and ≤ were set here for values at or beyond the usual limits of such assays
HLA-A*31:01 = assay: as above
HLA-A*03:01 [9] = assay: as above
HLA-B*08:01 [10] = assay: as above
HLA-B*27:05 = assay: as above
HLA-B*44:02 = assay: as above
HLA-B*40:01 = assay: as above
HLA-A*30:01 = assay: as above
HLA-B*58:01 = assay: as above
HLA-A*01:01 [11] = assay: as above
HLA-B*08:01 [12] = assay: IEDB peptide-MHC binding, purified MHC/competitive/fluorescence; filed as Kd, often an IC50 or EC50 that approximates it; ≥ and ≤ were set here for values at or beyond the usual limits of such assays
HLA-A*24:03 = assay: IEDB peptide-MHC binding, purified MHC/direct/fluorescence; filed as Kd, often an IC50 or EC50 that approximates it; ≥ and ≤ were set here for values at or beyond the usual limits of such assays
HLA-A*29:02 = assay: IEDB peptide-MHC binding, purified MHC/competitive/fluorescence; filed as Kd, often an IC50 or EC50 that approximates it; ≥ and ≤ were set here for values at or beyond the usual limits of such assays; details: source organism: Human betaherpesvirus 7
HLA-A*01:01 [13] = assay: as above; details: source organism: Human betaherpesvirus 7
[14] = source organism: Burkholderia mallei ATCC 23344
[15] = source organism: Zaire ebolavirus
[16] = source organism: Vaccinia virus
[17] = source organism: Vaccinia virus WR
[18] = source organism: Coxiella burnetii
[19] = source organism: Vibrio vulnificus
[20] = source organism: Shigella flexneri
[21] = source organism: Escherichia coli O6
[22] = source organism: Vibrio cholerae
[23] = source organism: Vaccinia virus Copenhagen
[24] = source organism: Escherichia coli O157:H7
[25] = source organism: Corynebacterium efficiens
[26] = source organism: Corynebacterium glutamicum

Sequence: VINWKGKEL
Kd (HLA-B*08:02; source organism: dengue virus type 3): ≥ 20 µM

Sequence: FLRRRRAAL
Kd (HLA-B*08:02; [14]): 0.071 µM

Kd (HLA-C*05:01): 2.04 µM
Kd (HLA-B*07:02; source organism: Homo sapiens): 0.179 µM
Kd (HLA-C*12:03; source organism: Homo sapiens): 0.102 µM
Kd (HLA-A*02:01 [1]; source organism: Homo sapiens): ≥ 39.5 µM
Kd (HLA-A*11:01 [2]; source organism: Homo sapiens): 10.3 µM
Kd (HLA-A*69:01; source organism: Homo sapiens): 3.61 µM
Kd (HLA-B*15:01 [3]; source organism: Homo sapiens): 0.731 µM
Sequence: LVMAPRTVL

Sequence: YMKAPSGAL
Kd (HLA-B*07:02; [14]): 0.009 µM
Kd (HLA-C*12:03; source organism: Burkholderia mallei SAVP1): 0.005 µM
Kd (HLA-B*48:01): 0.047 µM
Kd (HLA-B*15:01 [3]; source organism: Burkholderia mallei): 0.0385 µM
Kd (HLA-B*46:01): 1.95 µM
Kd (HLA-B*35:01; [14]): 3.13 µM

Sequence: YSTTIRYQA
IC50 (HLA-A*02:01 [4]; [15]): 42.3 µM
IC50 (HLA-A*01:01 [5]; [15]): ≥ 207 µM

Sequence: AMEKSSKYY
IC50 (HLA-A*03:01 [6]; [16]): ≥ 142 µM
IC50 (HLA-A*02:01 [4]; [16]): ≥ 1170 µM
IC50 (HLA-A*11:01 [7]; [16]): ≥ 195 µM
IC50 (HLA-A*24:02; [16]): ≥ 962 µM
IC50 (HLA-B*15:01 [8]; [16]): 11 µM
IC50 (HLA-A*01:01 [5]; [16]): 28.5 µM

Sequence: PIDSHKGYV
IC50 (HLA-A*02:01 [4]; [17]): ≥ 129 µM
IC50 (HLA-A*01:01 [5]; [17]): 29.4 µM

Sequence: VPPESVEAA
Kd (HLA-A*26:01; [18]): ≥ 20 µM
Kd (HLA-A*31:01; [18]): ≥ 20 µM
Kd (HLA-A*03:01 [9]; [18]): ≥ 20 µM
Kd (HLA-B*08:01 [10]; [18]): ≥ 20 µM
Kd (HLA-B*27:05; [18]): ≥ 20 µM
Kd (HLA-B*07:02; [18]): 12.2 µM
Kd (HLA-A*02:01 [1]; [18]): ≥ 20 µM
Kd (HLA-A*11:01 [2]; [18]): ≥ 20 µM
Kd (HLA-B*44:02; [18]): ≥ 20 µM
Kd (HLA-A*69:01; [18]): ≥ 20 µM
Kd (HLA-B*15:01 [3]; [18]): ≥ 20 µM
Kd (HLA-B*40:01; [18]): ≥ 20 µM
Kd (HLA-A*30:01; [18]): ≥ 20 µM
Kd (HLA-B*58:01; [18]): ≥ 20 µM
Kd (HLA-B*35:01; [18]): 1.56 µM
Kd (HLA-A*01:01 [11]; [18]): ≥ 20 µM

Sequence: TLHFKQYEF
Kd (HLA-B*08:01 [12]; source organism: Influenza A virus (A/Wyoming/3/2003-X-147(H3N2))): 0.433 µM

Sequence: NGYRWQHQI
Kd (HLA-A*26:01; [19]): ≥ 20 µM
Kd (HLA-A*31:01; [19]): ≥ 20 µM
Kd (HLA-A*03:01 [9]; [19]): ≥ 20 µM
Kd (HLA-B*27:05; [19]): ≥ 20 µM
Kd (HLA-A*02:01 [1]; [19]): 1.35 µM
Kd (HLA-A*24:03; [19]): 7.53 µM
Kd (HLA-A*11:01 [2]; [19]): ≥ 20 µM
Kd (HLA-B*44:02; [19]): ≥ 20 µM
Kd (HLA-A*69:01; [19]): 0.0174 µM
Kd (HLA-B*15:01 [3]; [19]): ≥ 20 µM
Kd (HLA-B*40:01; [19]): ≥ 20 µM
Kd (HLA-B*35:01; [19]): 0.843 µM
Kd (HLA-A*01:01 [11]; [19]): ≥ 20 µM

Sequence: KTTLFHTFK
Kd (HLA-A*26:01; [20]): ≥ 20 µM
Kd (HLA-A*31:01; [21]): 0.0304 µM
Kd (HLA-A*03:01 [9]; [21]): 0.122 µM
Kd (HLA-B*08:01 [10]; [20]): ≥ 20 µM
Kd (HLA-B*27:05; [20]): ≥ 20 µM
Kd (HLA-B*07:02; [20]): ≥ 20 µM
Kd (HLA-A*02:01 [1]; [20]): ≥ 20 µM
Kd (HLA-A*24:03; [20]): ≥ 20 µM
Kd (HLA-A*11:01 [2]; [21]): 0.0162 µM
Kd (HLA-B*44:02; [20]): ≥ 20 µM
Kd (HLA-A*69:01; [20]): ≥ 20 µM
Kd (HLA-B*15:01 [3]; [20]): ≥ 20 µM
Kd (HLA-B*40:01; [20]): ≥ 20 µM
Kd (HLA-A*30:01; [21]): 0.00609 µM
Kd (HLA-B*58:01; [21]): 9.38 µM
Kd (HLA-A*01:01 [11]; [20]): ≥ 20 µM

Kd (HLA-B*08:01 [12]; source organism: Escherichia coli): 0.644 µM
Sequence: LAARKARAA

Sequence: LSMFVTNKK
Kd (HLA-A*29:02): 0.0627 µM
Kd (HLA-A*01:01 [13]): 3 µM

Sequence: RPRIRLSAP
Kd (HLA-A*26:01; [22]): ≥ 20 µM
Kd (HLA-A*31:01; [22]): ≥ 20 µM
Kd (HLA-A*03:01 [9]; [22]): ≥ 20 µM
Kd (HLA-B*08:01 [10]; [22]): 1.89 µM
Kd (HLA-B*27:05; [22]): ≥ 20 µM
Kd (HLA-B*07:02; [22]): 0.0278 µM
Kd (HLA-A*02:01 [1]; [22]): ≥ 20 µM
Kd (HLA-A*24:03; [22]): ≥ 20 µM
Kd (HLA-A*11:01 [2]; [22]): ≥ 20 µM
Kd (HLA-B*44:02; [22]): ≥ 20 µM
Kd (HLA-A*69:01; [22]): ≥ 20 µM
Kd (HLA-B*15:01 [3]; [22]): ≥ 20 µM
Kd (HLA-B*40:01; [22]): ≥ 20 µM
Kd (HLA-A*30:01; [22]): 3.77 µM
Kd (HLA-B*58:01; [22]): ≥ 20 µM
Kd (HLA-A*01:01 [11]; [22]): ≥ 20 µM

Sequence: LSSQMTSTF
IC50 (HLA-A*02:01 [4]; [23]): ≥ 155 µM
IC50 (HLA-A*24:02; [23]): 0.788 µM
IC50 (HLA-B*15:01 [8]; [23]): 4.85 µM
IC50 (HLA-A*01:01 [5]; [23]): ≥ 129 µM

Kd (HLA-A*26:01; [21]): ≥ 20 µM
Kd (HLA-A*31:01; [21]): ≥ 20 µM
Kd (HLA-A*03:01 [9]; [21]): ≥ 20 µM
Kd (HLA-B*08:01 [10]; [21]): ≥ 20 µM
Kd (HLA-B*27:05; [21]): ≥ 20 µM
Kd (HLA-B*07:02; [21]): 0.0181 µM
Kd (HLA-A*02:01 [1]; [21]): ≥ 20 µM
Kd (HLA-A*24:03; [21]): ≥ 20 µM
Kd (HLA-A*11:01 [2]; [21]): ≥ 20 µM
Kd (HLA-A*69:01; [21]): ≥ 20 µM
Kd (HLA-B*15:01 [3]; [21]): ≥ 20 µM
Kd (HLA-B*40:01; [21]): ≥ 20 µM
Kd (HLA-B*58:01; [21]): ≥ 20 µM
Kd (HLA-B*35:01; [21]): 0.0209 µM
Kd (HLA-A*01:01 [11]; [21]): ≥ 20 µM
Sequence: TPVWHVTSA

Sequence: RVNPGTYVY
IC50 (HLA-A*03:01 [6]; source organism: Variola virus): 4.32 µM
IC50 (HLA-A*11:01 [7]; source organism: Variola virus): 0.701 µM
IC50 (HLA-B*15:01 [8]; source organism: Variola virus): 9.02 µM
IC50 (HLA-A*01:01 [5]; source organism: Variola virus): 10.3 µM

Kd (HLA-A*26:01; [24]): ≥ 20 µM
Kd (HLA-A*31:01; [24]): ≥ 20 µM
Kd (HLA-A*03:01 [9]; [24]): ≥ 20 µM
Kd (HLA-B*08:01 [10]; [24]): 4.46 µM
Kd (HLA-B*27:05; [24]): ≥ 20 µM
Kd (HLA-B*07:02; [24]): 8.52 µM
Kd (HLA-A*02:01 [1]; [24]): ≥ 20 µM
Kd (HLA-A*11:01 [2]; [24]): ≥ 20 µM
Kd (HLA-B*44:02; [24]): ≥ 20 µM
Kd (HLA-A*69:01; [24]): 0.227 µM
Kd (HLA-B*15:01 [3]; [24]): 1.81 µM
Kd (HLA-B*40:01; [24]): ≥ 5 µM
Kd (HLA-B*35:01; [24]): 0.392 µM
Kd (HLA-A*01:01 [11]; [24]): ≥ 20 µM
Sequence: IAIPAHVRL

Kd (HLA-A*26:01; [25]): ≥ 20 µM
Kd (HLA-A*31:01; [26]): 4.37 µM
Kd (HLA-A*03:01 [9]; [26]): 0.242 µM
Kd (HLA-B*08:01 [10]; [25]): ≥ 20 µM
Kd (HLA-B*27:05; [25]): ≥ 20 µM
Kd (HLA-B*07:02; [25]): ≥ 20 µM
Kd (HLA-A*02:01 [1]; [25]): ≥ 20 µM
Kd (HLA-A*24:03; [25]): ≥ 20 µM
Kd (HLA-A*11:01 [2]; [26]): 0.07 µM
Kd (HLA-A*69:01; [25]): ≥ 20 µM
Kd (HLA-B*15:01 [3]; [25]): ≥ 20 µM
Kd (HLA-B*40:01; [25]): ≥ 20 µM
Kd (HLA-A*30:01; [26]): 1.49 µM
Kd (HLA-B*58:01; [25]): ≥ 20 µM
Kd (HLA-A*01:01 [11]; [25]): ≥ 20 µM
Sequence: KLGDQFGRK

Reference: the Immune Epitope Database (IEDB)
